Measured values as given in publication PMC10143822, “Structural Adaptation of the Single-Stranded DNA-Binding Protein C-Terminal to DNA Metabolizing Partners Guides Inhibitor Design” (Pharmaceutics, 2023).
Where a SMILES comes first, the peptide text is derived from it. Primed or numbered codes have the meaning given here. Where no end group is shown, it is not given here. [ ]: non-standard residue; d: D form. 5,6‑carboxyfluorescein = 5,6-carboxyfluorescein; Phe(4-CF3) = N[C@@H](Cc1ccc(C(F)(F)F)cc1)C(=O)O; Phe(3-Cl) = N[C@@H](Cc1cccc(Cl)c1)C(=O)O; Phe(4-Cl) = N[C@@H](Cc1ccc(Cl)cc1)C(=O)O; β3hF = N[C@H](CC(=O)O)Cc1ccccc1; NMeD = CN[C@@H](CC(=O)O)C(=O)O; Tle = CC(C)(C)[C@H](N)C(=O)O; Pip′ = not defined here

T1: E. coli Exonuclease I (E. coli, UniProt P04995 1-471)
T1 construct: Exonuclease I of E. coli, from plasmid pET14b-E. coli Exonuclease I (Addgene 104552); The His tag was cut off with thrombin only for the purified protein; also called ExoI; Exol; source: E. coli BL21 (DE3) pLysS, purified (Ni-NTA, heparin); also in cell lysate (pull-down)
T1 sequence: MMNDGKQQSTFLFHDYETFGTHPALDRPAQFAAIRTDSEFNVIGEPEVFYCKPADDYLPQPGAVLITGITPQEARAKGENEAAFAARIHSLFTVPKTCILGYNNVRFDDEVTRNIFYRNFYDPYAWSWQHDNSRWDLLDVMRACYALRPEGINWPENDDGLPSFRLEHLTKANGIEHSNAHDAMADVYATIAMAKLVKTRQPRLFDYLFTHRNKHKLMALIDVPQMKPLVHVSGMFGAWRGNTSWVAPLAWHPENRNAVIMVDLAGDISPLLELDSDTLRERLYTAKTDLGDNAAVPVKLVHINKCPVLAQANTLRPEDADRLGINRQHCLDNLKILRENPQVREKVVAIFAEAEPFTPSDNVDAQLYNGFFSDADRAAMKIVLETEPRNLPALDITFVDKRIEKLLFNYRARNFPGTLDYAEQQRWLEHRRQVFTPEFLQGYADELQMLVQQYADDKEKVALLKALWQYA

T2: Escherichia coli RecO (Escherichia coli, UniProt P0A7H3 1-242)
T2 construct: RecO of Escherichia coli, synthetic gene in pET28a+ with a TEV site at the 5' end; The His tag was cut off with TEV protease only for the purified protein; source: E. coli Rosetta, purified (Ni-NTA, heparin); also in cell lysate (pull-down); not shown: His tag, N-terminal, cleaved
T2 sequence: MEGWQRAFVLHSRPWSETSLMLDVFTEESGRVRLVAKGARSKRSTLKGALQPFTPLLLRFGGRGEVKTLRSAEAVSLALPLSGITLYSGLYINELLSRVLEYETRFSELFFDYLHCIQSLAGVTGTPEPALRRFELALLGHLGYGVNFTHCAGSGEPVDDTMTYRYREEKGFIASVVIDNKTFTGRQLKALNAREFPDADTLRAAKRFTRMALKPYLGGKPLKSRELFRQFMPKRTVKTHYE

B1: E2-sSSB-Ct (Asp–4-CF3-Phe–Asp–Asp–Asp–Ile–Pro–4-CF3-Phe) (peptide)
peptide: Ac-D[Phe(4-CF3)]DDDIP[Phe(4-CF3)]
notes: SSB-Ct of E. coli SSB (residues 171-178), printed in three-letter code; F2 and F8 stand for 4-CF3-Phe; numbers count on: the octapeptide (position 1 = SSB residue 171); also called E2.SSB-Ct; source: synthetic peptide
B2: F-4CF3-Phe2 (fluorescein-labelled single mutant) (peptide)
peptide: {5,6‑carboxyfluorescein}-GGD[Phe(4-CF3)]DDDIPF
notes: two glycines between the 5,6-carboxyfluorescein and the peptide; E. coli SSB-Ct, residues 171-178; F at position 2 stands for 4-CF3-Phe; numbers count on: the octapeptide (position 1 = SSB residue 171); One of Compounds 54-62 of the Supplementary Material; also called F-mSSB 4CF3-Phe2; source: synthetic peptide
B3: F-4CF3-Phe8 (fluorescein-labelled single mutant) (peptide)
peptide: {5,6‑carboxyfluorescein}-GGDFDDDIP[Phe(4-CF3)]
notes: two glycines between the 5,6-carboxyfluorescein and the peptide; E. coli SSB-Ct, residues 171-178; F at position 8 stands for 4-CF3-Phe; numbers count on: the octapeptide (position 1 = SSB residue 171); One of Compounds 54-62 of the Supplementary Material; also called F-mSSB 4CF3-Phe8; source: synthetic peptide
B4: R1-sSSB-Ct (Asp–4Cl-Phe–NM-Asp–Asp–Glu–Leu–Pro–3Cl-Phe) (peptide)
peptide: Ac-D[Phe(4-Cl)][NMeD]DELP[Phe(3-Cl)]
notes: SSB-Ct of E. coli SSB (residues 171-178) with combined modifications, printed in three-letter code; F2 stands for 4Cl-Phe, D3 for NM-Asp, F8 for 3Cl-Phe; numbers count on: the octapeptide (position 1 = SSB residue 171); source: synthetic peptide
B5: F-4Cl-Phe2 (fluorescein-labelled single mutant) (peptide)
peptide: {5,6‑carboxyfluorescein}-GGD[Phe(4-Cl)]DDDIPF
notes: two glycines between the 5,6-carboxyfluorescein and the peptide; E. coli SSB-Ct, residues 171-178; F at position 2 stands for 4-Cl-Phe; numbers count on: the octapeptide (position 1 = SSB residue 171); One of Compounds 54-62 of the Supplementary Material; also called F-mSSB 4Cl-Phe2; source: synthetic peptide
B6: F-Leu6 (fluorescein-labelled single mutant) (peptide)
peptide: {5,6‑carboxyfluorescein}-GGDFDDDLPF
notes: two glycines between the 5,6-carboxyfluorescein and the peptide; E. coli SSB-Ct, residues 171-178; numbers count on: the octapeptide (position 1 = SSB residue 171); One of Compounds 54-62 of the Supplementary Material; also called F-mSSB Leu6; source: synthetic peptide

Columns and labels:
ExoI = target: T3, ExoI (Escherichia coli, UniProt P04995); experiment: biochemical; format: binding, E. coli
T3 construct: His-tag (cleaved yes); host or cells: E. coli BL21 (DE3) pLysS
Method: (§1) Triplicate measurements were performed using a Clariostar Plus Microplate Reader in 384-well plates for all fluorescence anisotropy (FA) experiments. The settings were 25 °C, excitation at 485 nm, emission at 510 nm, settling time of 0.2 s, and 200 flashes per well.
(§2) Competition fluorescence anisotropy experiments were carried out as follows: protein (0.5 μM either ExoI or RecO) was incubated with 50 nM F-wtSSB peptide and 0–500 μM unlabeled wtSSB (or a variant) peptide for 30 min at room temperature. For direct fluorescence anisotropy measurements, 16 µM ExoI and 7.5 µM RecO were used in the first well. After serial dilution, either 50 nM of F-mSSB or F-sSSB was added to the wells and then incubated for 30 min. Buffers used included 20 mM Tris-HCl (pH 8.0), 100 mM NaCl, 1 mM MgCl2, 1 mM 2-mercaptoethanol, 10% (v/v) glycerol, for ExoI and 20 mM Tris-HCl (pH 8.0), 200 mM NaCl, 1 mM 2-mercaptoethanol, 10% (v/v) glycerol, and 0.01% Triton-X 100 for RecO [37].
(§3) Fluorescence anisotropy values were normalized and are shown as bound fractions (BF, %). BF=r−rmin/λ(rmax−r)+r−rmin, I=2∗PG+S, r=S−PG/I, where r: anisotropy, I: total intensity, P: perpendicular intensity, S: parallel intensity, G: an instrument factor set to 1, BF: ligand fraction bound, and λ=λbound/λunbound=1 .
(§4) Competitive fluorescence anisotropy was analyzed in Origin Pro 9.5, and IC50 values were determined using the Logistic Nonlinear fit function and are shown as plots for each mutated position for each protein in Figures S4 and S6. EC50 values from direct fluorescence anisotropy titrations were plotted in Origin 9.5. Values were determined using the Logistics Nonlinear fit function.

RecO = target: T4, RecO (Escherichia coli, UniProt P0A7H3); experiment: biochemical; format: binding; conditions: 0.5 μM RecO, 50 nM F-wtSSB tracer, 0–500 μM unlabeled peptide, 30 min room temperature; 20 mM Tris-HCl pH 8.0, 200 mM NaCl, 10% glycerol, 0.01% Triton-X 100; 25 °C; triplicate; read-out: IC50 on RecO, competitive fluorescence anisotropy
T4 construct: His-tag (TEV site) (N, cleaved yes); made in house; host or cells: E. coli Rosetta cells
Method: as §1, §2, §3, §4

E. coli Exonuclease I [1] = target: T1, E. coli Exonuclease I; experiment: ITC; peptide in the syringe titrated into ExoI in the cell; 20 mM Tris–HCl pH 8.0, 100 mM NaCl, 1 mM MgCl2, 4% glycerol, 1 mM β-mercaptoethanol; model A + B = C, stoichiometry fixed to 1:1, incompetent fraction fitted; conditions: both partners purified
E. coli Exonuclease I [2] = target: T1, E. coli Exonuclease I; experiment: fluorescence polarisation; direct fluorescence anisotropy: ExoI serially diluted from 16 µM, 50 nM fluorescein-labelled peptide, 30 min, 25 °C; 20 mM Tris-HCl pH 8.0, 100 mM NaCl, 1 mM MgCl2, 1 mM 2-mercaptoethanol, 10% glycerol; conditions: both partners purified
Escherichia coli RecO = target: T2, Escherichia coli RecO; experiment: ITC; peptide in the syringe titrated into RecO in the cell; 50 mM HEPES pH 7.5, 50 mM NaCl, 25% glycerol, 1 mM TCEP; model A + B = C, stoichiometry fixed to 1:1, incompetent fraction fitted; conditions: both partners purified

T3 sequence (P04995 whole entry): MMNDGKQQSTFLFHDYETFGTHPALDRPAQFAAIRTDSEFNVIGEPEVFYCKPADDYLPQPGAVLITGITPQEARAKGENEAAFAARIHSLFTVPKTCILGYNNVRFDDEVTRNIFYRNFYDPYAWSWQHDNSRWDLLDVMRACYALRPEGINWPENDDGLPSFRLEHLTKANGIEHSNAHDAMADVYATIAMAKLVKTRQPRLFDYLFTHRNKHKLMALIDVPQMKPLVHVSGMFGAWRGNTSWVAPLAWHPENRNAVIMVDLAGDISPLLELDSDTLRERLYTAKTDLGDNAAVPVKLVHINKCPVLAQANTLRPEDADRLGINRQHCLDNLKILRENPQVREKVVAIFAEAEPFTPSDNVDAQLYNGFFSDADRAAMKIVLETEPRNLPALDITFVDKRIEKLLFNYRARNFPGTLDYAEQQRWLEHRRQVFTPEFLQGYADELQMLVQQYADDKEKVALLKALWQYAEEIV

Row | Molecule | IC50 (ExoI) | IC50 (RecO) | EC50 (E. coli Exonuclease I [2]) | further results
1 | CC[C@H](C)[C@H](NC(=O)[C@H](CC(=O)O)NC(=O)[C@H](CC(=O)O)NC(=O)[C@H](CC(=O)O)NC(=O)C[C@H](Cc1ccccc1)NC(=O)[C@H](CC(=O)O)NC(C)=O)C(=O)N1CCC[C@H]1C(=O)N[C@@H](Cc1ccccc1)C(=O)O [β3-Phe2] (Ac-D[β3hF]DDDIPF-OH) | 3.8 ± 0.11 µM | 3.66 ± 0.61 µM |  | 
2 | Ac-DFDDNIPF [Asn5] | 7.92 ± 0.62 µM | 16 ± 0.51 µM |  | 
3 | Ac-DFDEDIPF [Glu4] | 3.58 ± 0.11 µM | 5.68 ± 0.59 µM |  | 
4 | CC(=O)N[C@@H](CC(=O)O)C(=O)N[C@@H](Cc1ccccc1)C(=O)N[C@@H](CC(=O)O)C(=O)N[C@@H](CC(=O)O)C(=O)N[C@@H](CC(=O)O)C(=O)N[C@H](C(=O)N1CCC[C@H]1C(=O)N[C@@H](Cc1ccccc1)C(=O)O)C(C)(C)C [tBuGly6] (Ac-DFDDD[Tle]PF-OH) | 2.87 ± 0.26 µM | 10.4 ± 1.02 µM |  | 
5 | B1 |  |  |  | dH (E. coli Exonuclease I [1]): -13.4 kcal/mol; stoichiometry N (E. coli Exonuclease I [1]): 0.885
6 | B2 |  |  | 0.04 ± 0.002 µM | 
7 | {5,6‑carboxyfluorescein}-DFDDDI[Pip′]F (not fully specified) [F-Pip7 (fluorescein-labelled single mutant)] |  |  | 0.09 ± 0.01 µM | 
8 | B3 |  |  | 0.09 ± 0.01 µM | 
9 | B4 |  |  |  | Kd (Escherichia coli RecO): 0.13 µM; dH (Escherichia coli RecO): -6.79 kcal/mol; stoichiometry N (Escherichia coli RecO): 0.935
10 | B5 |  |  | 0.15 ± 0.02 µM | 
11 | B6 |  |  | 0.2 ± 0.03 µM | 
